From patent publication US20100040577

Tested on: human recombinant CXCL10 (1-77)
Sequence (chain, as listed by the source): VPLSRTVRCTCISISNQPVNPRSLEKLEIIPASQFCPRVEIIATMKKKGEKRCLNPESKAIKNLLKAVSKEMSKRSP

| Substance | cleavage of CXCL10 (SELDI-TOF mass analysis) | molecular weight difference after in vitro digestion (SELDI-TOF mass spectrometry) |
| --- | --- | --- |
| active MMP2 | MMP2 did not alter the mass of CXCL10 |  |
| recombinant DPP4 |  | The molecular weight difference (red number) between CXCL10 (1-77) and CXCL10 (3-77) is 0.2 KDa, corresponding to a 2 amino-acid difference |
| active MMP9 | MMP9 cleaved 9 amino acids from CXCL10 |  |
